B1: Azoarcus group I ribozyme (parent)
chain: GUGCCUUGCGCCGGGAAACCACGCAAGGGAUGGUGUCAAAUUCGGCGAAACCUAAGCGCCCGCCCGGGCGUAUGGCAACGCCGAGCCAAGCUUCGGCGCCUGCGCCGAUGAAGGUGUAGAGACUAGACGGCACCCACCUAAGGCAAACGCUAUGGUGAAGGCAUAGUCCAGGGAGUGGCGAAAGUCACACAAACCGG

Variants of: B1
Assay: reverse-splicing fitness (ratio to wild type); higher = more active; in vitro selection; Mg2+ level not given
Summary of the method: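 An in vitro group I ribozyme library with randomized positions was T7-transcribed and gel-purified. In triplicate, 10 pmol RNA in EPPS pH 7.5 was reacted with 50 pmoles of a 30-nt RNA substrate for 1 h at 37 °C across several added MgCl2 levels (1–48 mM), then stopped with EDTA. Products were reverse transcribed from a substrate-complementary primer, PCR-amplified and sequenced (HiSeq 4000). Fitness is a variant's read proportion after selection over that before, normalised to wild type.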

Variant	reverse-splicing fitness
GUGCCUUGCGCCGGGAAACCACGCAAGGGAUGGUGUCAAAUUCGGCGAAACCUAAGCGCCCGCCCGGGCGUAUGGCAACGCCGAGCCAAGCUUCGGCGCCUGCGCCGAUGGAGGUGUAGUGACUAGACGGCACCCACCUAAGGCCAACGGUAUGGUGAAGGCAUAGUCAAGGGAGGGGCGAAAGUCACACAAACCGG [A111G A120U A145C C150G C169A U176G]	0.00216
GUGCCUUGCGCCGGGAAACCACGCAAGGGAUGGUGUCAAAUUCGGCGAAACCUAAGCGCCCGCCCGGGCGUAUGGCAACGCCGAGCCAAGCUUCGGCGCCUGCGCCGAUGGAGGUGUAGUGACUAGACGGCACCCACCUAAGGCCAACGGUAUGGUGAAGGCAUAGUCGAGGGAGUGGCGAAAGUCACACAAACCGG [A111G A120U A145C C150G C169G]	0.0104
GUGCCUUGCGCCGGGAAACCACGCAAGGGAUGGUGUCAAAUUCGGCGAAACCUAAGCGCCCGCCCGGGCGUAUGGCAACGCCGAGCCAAGCUUCGGCGCCUGCGCCGAUGGAGGUGUAGUGACUAGACGGCACCCACCUAAGGCCAACGGUAUGGUGAAGGCAUAGUCGAGGGAGAGGCGAAAGUCACACAAACCGG [A111G A120U A145C C150G C169G U176A]	0.00296
GUGCCUUGCGCCGGGAAACCACGCAAGGGAUGGUGUCAAAUUCGGCGAAACCUAAGCGCCCGCCCGGGCGUAUGGCAACGCCGAGCCAAGCUUCGGCGCCUGCGCCGAUGGAGGUGUAGUGACUAGACGGCACCCACCUAAGGCCAACGGUAUGGUGAAGGCAUAGUCGAGGGAGCGGCGAAAGUCACACAAACCGG [A111G A120U A145C C150G C169G U176C]	0.0019
GUGCCUUGCGCCGGGAAACCACGCAAGGGAUGGUGUCAAAUUCGGCGAAACCUAAGCGCCCGCCCGGGCGUAUGGCAACGCCGAGCCAAGCUUCGGCGCCUGCGCCGAUGGAGGUGUAGUGACUAGACGGCACCCACCUAAGGCCAACGGUAUGGUGAAGGCAUAGUCGAGGGAGGGGCGAAAGUCACACAAACCGG [A111G A120U A145C C150G C169G U176G]	0.00213
GUGCCUUGCGCCGGGAAACCACGCAAGGGAUGGUGUCAAAUUCGGCGAAACCUAAGCGCCCGCCCGGGCGUAUGGCAACGCCGAGCCAAGCUUCGGCGCCUGCGCCGAUGGAGGUGUAGUGACUAGACGGCACCCACCUAAGGCCAACGGUAUGGUGAAGGCAUAGUCUAGGGAGUGGCGAAAGUCACACAAACCGG [A111G A120U A145C C150G C169U]	0.014
GUGCCUUGCGCCGGGAAACCACGCAAGGGAUGGUGUCAAAUUCGGCGAAACCUAAGCGCCCGCCCGGGCGUAUGGCAACGCCGAGCCAAGCUUCGGCGCCUGCGCCGAUGGAGGUGUAGUGACUAGACGGCACCCACCUAAGGCCAACGGUAUGGUGAAGGCAUAGUCUAGGGAGAGGCGAAAGUCACACAAACCGG [A111G A120U A145C C150G C169U U176A]	0.00272
GUGCCUUGCGCCGGGAAACCACGCAAGGGAUGGUGUCAAAUUCGGCGAAACCUAAGCGCCCGCCCGGGCGUAUGGCAACGCCGAGCCAAGCUUCGGCGCCUGCGCCGAUGGAGGUGUAGUGACUAGACGGCACCCACCUAAGGCCAACGGUAUGGUGAAGGCAUAGUCUAGGGAGCGGCGAAAGUCACACAAACCGG [A111G A120U A145C C150G C169U U176C]	0.0023
GUGCCUUGCGCCGGGAAACCACGCAAGGGAUGGUGUCAAAUUCGGCGAAACCUAAGCGCCCGCCCGGGCGUAUGGCAACGCCGAGCCAAGCUUCGGCGCCUGCGCCGAUGGAGGUGUAGUGACUAGACGGCACCCACCUAAGGCCAACGGUAUGGUGAAGGCAUAGUCUAGGGAGGGGCGAAAGUCACACAAACCGG [A111G A120U A145C C150G C169U U176G]	0.00225
GUGCCUUGCGCCGGGAAACCACGCAAGGGAUGGUGUCAAAUUCGGCGAAACCUAAGCGCCCGCCCGGGCGUAUGGCAACGCCGAGCCAAGCUUCGGCGCCUGCGCCGAUGGAGGUGUAGUGACUAGACGGCACCCACCUAAGGCCAACGGUAUGGUGAAGGCAUAGUCCAGGGAGAGGCGAAAGUCACACAAACCGG [A111G A120U A145C C150G U176A]	0.0114
GUGCCUUGCGCCGGGAAACCACGCAAGGGAUGGUGUCAAAUUCGGCGAAACCUAAGCGCCCGCCCGGGCGUAUGGCAACGCCGAGCCAAGCUUCGGCGCCUGCGCCGAUGGAGGUGUAGUGACUAGACGGCACCCACCUAAGGCCAACGGUAUGGUGAAGGCAUAGUCCAGGGAGCGGCGAAAGUCACACAAACCGG [A111G A120U A145C C150G U176C]	0.0153
GUGCCUUGCGCCGGGAAACCACGCAAGGGAUGGUGUCAAAUUCGGCGAAACCUAAGCGCCCGCCCGGGCGUAUGGCAACGCCGAGCCAAGCUUCGGCGCCUGCGCCGAUGGAGGUGUAGUGACUAGACGGCACCCACCUAAGGCCAACGGUAUGGUGAAGGCAUAGUCCAGGGAGGGGCGAAAGUCACACAAACCGG [A111G A120U A145C C150G U176G]	0.0047
GUGCCUUGCGCCGGGAAACCACGCAAGGGAUGGUGUCAAAUUCGGCGAAACCUAAGCGCCCGCCCGGGCGUAUGGCAACGCCGAGCCAAGCUUCGGCGCCUGCGCCGAUGGAGGUGUAGUGACUAGACGGCACCCACCUAAGGCCAACGUUAUGGUGAAGGCAUAGUCCAGGGAGUGGCGAAAGUCACACAAACCGG [A111G A120U A145C C150U]	0.264
GUGCCUUGCGCCGGGAAACCACGCAAGGGAUGGUGUCAAAUUCGGCGAAACCUAAGCGCCCGCCCGGGCGUAUGGCAACGCCGAGCCAAGCUUCGGCGCCUGCGCCGAUGGAGGUGUAGUGACUAGACGGCACCCACCUAAGGCCAACGUUAUGGUGAAGGCAUAGUCAAGGGAGUGGCGAAAGUCACACAAACCGG [A111G A120U A145C C150U C169A]	0.0024
GUGCCUUGCGCCGGGAAACCACGCAAGGGAUGGUGUCAAAUUCGGCGAAACCUAAGCGCCCGCCCGGGCGUAUGGCAACGCCGAGCCAAGCUUCGGCGCCUGCGCCGAUGGAGGUGUAGUGACUAGACGGCACCCACCUAAGGCCAACGUUAUGGUGAAGGCAUAGUCAAGGGAGAGGCGAAAGUCACACAAACCGG [A111G A120U A145C C150U C169A U176A]	0.00259

— the RNAGym collection of RNA variant scans (doi:10.1093/molbev/msab373)
